The values below come from US20200164032A1 (WASHINGTON UNIVERSITY, published 2020).

By koff is commonly meant the rate constant with which the complex falls apart. A low value points to slow dissociation. The Kd is the equilibrium constant for the complex coming apart. Higher therefore signals weaker binding.

The target in assay [1] is CCL2 (species not given). The experiment in a line: SPR, R17 variant on CM5 chip; column kd x 10^-3 s-1. On the technique in general: In SPR one partner is held on a chip, and binding of the other changes the refractive index at the surface.
In another assay the target is T1, murine CCL8 (mouse, UniProt Q9Z121 24-97).
T1 construct: also called mCCL8
T1 sequence: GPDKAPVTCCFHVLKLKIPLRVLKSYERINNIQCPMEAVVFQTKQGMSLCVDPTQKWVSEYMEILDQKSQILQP
The experiment in a line: SPR, R17 on CM5 chip; KD,kin = kd/ka from the global fit.

Another assay has as its target T2, human CCL2 (human, UniProt P13500 24-99).
T2 construct: also called hCCL2
Described as above.

For another assay, the target named is T3, murine CCL2 (mouse, UniProt P10148 24-148).
T3 construct: also called mCCL2
T3 sequence (P10148 24-148 limits assumed): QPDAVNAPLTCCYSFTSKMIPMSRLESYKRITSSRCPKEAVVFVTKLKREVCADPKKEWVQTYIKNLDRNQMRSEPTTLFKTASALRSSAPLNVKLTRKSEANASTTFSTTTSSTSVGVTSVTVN
Described as above.

In a further assay the target is T4, murine CCL20 (mouse, UniProt O89093 28-97).
T4 construct: also called mCCL20
T4 sequence: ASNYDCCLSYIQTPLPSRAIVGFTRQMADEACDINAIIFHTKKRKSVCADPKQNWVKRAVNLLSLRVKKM
The description is as above.

Another assay has as its target T5, CCL9 (UniProt P51670 22-122).
T5 sequence: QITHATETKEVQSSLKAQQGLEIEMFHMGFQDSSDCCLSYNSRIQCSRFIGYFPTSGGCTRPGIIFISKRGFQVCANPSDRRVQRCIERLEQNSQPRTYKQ
The assay is described as above.

The next assay addresses T6, murine CCL12 (mouse, UniProt Q62401 23-104).
T6 construct: also called mCCL12
T6 sequence: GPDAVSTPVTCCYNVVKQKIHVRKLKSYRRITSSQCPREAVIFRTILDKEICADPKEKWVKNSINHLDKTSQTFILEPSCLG
The assay is described as above.

Assay [2] addresses T7, murine XCL1 (lymphotactin) (mouse, UniProt P47993 22-114).
T7 construct: also called mXCL1; lymphotactin (XCL1)
T7 sequence: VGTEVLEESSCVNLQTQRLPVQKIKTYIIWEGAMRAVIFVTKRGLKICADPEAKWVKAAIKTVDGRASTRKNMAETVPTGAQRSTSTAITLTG
The experiment in a line: SPR, R17 amine-coupled to CM5 chip.

A further assay concerns the target T8, murine CCL4 (mouse, UniProt P14097 24-92).
T8 construct: also called mCCL4
T8 sequence: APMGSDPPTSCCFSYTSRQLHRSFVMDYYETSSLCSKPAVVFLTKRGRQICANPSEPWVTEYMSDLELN
The experiment in a line: SPR, R17 amine-coupled to CM5 chip.

A further assay addresses T9, human CCL5 (human, UniProt P13501 24-91).
T9 construct: also called hCCL5
T9 sequence: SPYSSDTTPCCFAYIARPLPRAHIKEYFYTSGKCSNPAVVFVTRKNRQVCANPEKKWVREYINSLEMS
The experiment in a line: SPR, R17 amine-coupled to CM5 chip.

A further assay deals with T10, murine CCL11 (mouse, UniProt P48298 24-97).
T10 sequence: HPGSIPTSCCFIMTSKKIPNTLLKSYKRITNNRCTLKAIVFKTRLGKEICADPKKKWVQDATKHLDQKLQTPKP
The experiment in a line: SPR, R17 amine-coupled to CM5 chip.

For another assay, the target named is T11, human CCL3 (human, UniProt P10147 23-92).
T11 construct: also called hCCL3
T11 sequence: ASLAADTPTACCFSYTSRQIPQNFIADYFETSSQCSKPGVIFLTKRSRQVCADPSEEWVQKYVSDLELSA
The experiment in a line: SPR, R17 amine-coupled to CM5 chip.

For a further assay, the target named is T12, murine CCL3 (mouse, UniProt P10855 24-92).
T12 construct: also called mCCL3
T12 sequence: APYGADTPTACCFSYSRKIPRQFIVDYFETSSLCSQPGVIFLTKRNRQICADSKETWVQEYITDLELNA
The experiment in a line: SPR, R17 amine-coupled to CM5 chip.

A further assay has as its target T13, murine CCL5 (mouse, UniProt P30882 24-91).
T13 construct: also called mCCL5
The experiment in a line: SPR, R17 amine-coupled to CM5 chip.

For a further assay, the target named is T14, murine CCL19 (mouse, UniProt O70460 26-108).
T14 construct: also called mCCL19
T14 sequence: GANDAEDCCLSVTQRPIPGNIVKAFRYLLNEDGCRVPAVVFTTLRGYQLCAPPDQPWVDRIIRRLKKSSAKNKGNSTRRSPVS
The experiment in a line: SPR, R17 amine-coupled to CM5 chip.

Another assay has as its target T15, murine IL-13 (mouse, UniProt P20109 21-131).
T15 construct: also called mIL-13
T15 sequence: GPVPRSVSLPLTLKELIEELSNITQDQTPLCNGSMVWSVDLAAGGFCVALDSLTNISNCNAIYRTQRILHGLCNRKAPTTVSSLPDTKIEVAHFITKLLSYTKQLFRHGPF
The experiment in a line: SPR, R17 on CM5 chip.

For another assay, the target named is T16, murine CXCL9 (mouse, UniProt P18340 22-126).
T16 construct: also called mCXCL9
T16 sequence: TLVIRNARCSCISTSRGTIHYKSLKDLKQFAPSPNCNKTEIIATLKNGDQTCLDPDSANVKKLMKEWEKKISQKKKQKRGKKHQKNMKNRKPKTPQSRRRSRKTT
The experiment in a line: SPR, R17 on CM5 chip.

T2 sequence (P13500 24-99 limits assumed): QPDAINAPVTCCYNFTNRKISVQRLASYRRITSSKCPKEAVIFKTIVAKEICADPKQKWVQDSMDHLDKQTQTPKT
T13 sequence (P30882 24-91 limits assumed): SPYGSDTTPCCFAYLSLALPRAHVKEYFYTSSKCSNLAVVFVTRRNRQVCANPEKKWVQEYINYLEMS

B1: R17 chemokine decoy receptor of Rodent herpesvirus Peru (RHVP), wild type, C-terminal 8-His fusion (receptor)
chain: GPVGEPVASEINEASKVSSRLLTQDILFRKDRQATISLPIKLPVEDIITQTCDKITYGPLKFLDLLEKETAVLPLSTDITCPACLGRAVLVGKWECPAHVAVNESDLTVFGPNKEEHVPQFVTVQQPSDGKMQRLFFAKFLGTEESLAVLRVPGPDGHLCIQEALIHFKELSGAGVCSLWKANDSREEGLEMKQVDCLETTVLENQTCIATTLSKKIYHRLYCGERLMTGGQVSTRVLLTALGFYKRQPYTFHRVPKGMVYVHLIDSGSEDYMEYSECEEVTPGRYEDKQISYTFYTDLFQTADGEPVLASVWGTSGLKDSAYESCAFVIPTKGRRKLVPRRIMSKCYPFRLTYHPSTMTVRLDVRVEKHHGATDQGFVFLKMESGTYSEGREYYLDRVLWGEDSSTNNVLQ
notes: not shown: C-terminal 8-His tag
As for B1, the koff in assay [1] is 0.02 s⁻¹. Besides, the Kd in the assay with murine CCL8 was 76 nM; in the assay with human CCL2, 7.5 nM; with murine CCL2 it was 6.7 nM; with murine CCL20 it was 4.7 nM; in the assay with CCL9, 4.5 nM; in the assay with murine CCL12 it was 1.1 nM. In addition, the “dissociation time of the complex” value (in assay [2]; with murine CCL4; with human CCL5; with human CCL3; with murine CCL3; with murine CCL5) was greater than 10 min in each case. Also, the binding result with murine CCL11 is “binds”; with murine CCL19 it was “binds”; with murine IL-13 it was “no binding”; with murine CXCL9, “no binding”.
